Measured values taken from patent US20150266957A1 (Regeneron, published 2015).

What was measured:
[1] = target: T1, human PROKR1 (human, UniProt Q8TCW9 1-393); assay: cell-based or functional assay
[2] = target: cynomolgus monkey PROKR1 (cynomolgus monkey (Macaca fascicularis), UniProt G7PMD0 1-393); assay: cell-based or functional assay
[3] = target: mouse PROKR1 (mouse (Mus musculus), UniProt Q9JKL1 1-393); assay: cell-based or functional assay
[4] = target: rat PROKR1 (rat (Rattus norvegicus), UniProt Q8R416 1-393); assay: cell-based or functional assay
[5] = target: T1, human PROKR1; assay: cell-based or functional assay; remark: listed apart in the source
[6] = target: T2, human PROKR1 (1-62)-hFc (human); assay: SPR (Biacore 4000), 25 C, antibody captured, antigen injected at 25 and 100 nM
T2 construct: also called soluble human PROKR1 (N-terminal portion)
Experimental: (§1) Kinetic experiments were carried out using HBS-EP (10 mM HEPES, 150 mM NaCl, 3 mM EDTA, 0.05% Surfactant P20, pH 7.4) as both the running buffer and the sample buffer. Antigen-antibody association rates were measured by injecting 2 concentrations (25 and 100 nM) of both human PROKR1 (1-62)-hFc (SEQ ID NO:179) and human PROKR2(1-53)-hFc (SEQ ID NO:180) over the captured antibody surface. Antibody-antigen association was monitored for 90 seconds while dissociation was monitored for 360 seconds. Kinetic on-rate (kₐ) and off-rate (kd) constants were determined from the data using Scrubber software version 2.0 c. Binding dissociation equilibrium constants (KD) and dissociative half-lives (t 1/2) were calculated from the kinetic rate constants as: KD=kd/kₐ and t 1/2=ln(2)/kd.

[7] = target: T3, human PROKR2(1-53)-hFc (human); assay: as above
T3 construct: also called soluble human PROKR2 (N-terminal portion)
Experimental: as §1

[8] = target: T4, human PROKR2 (human, UniProt Q8NFJ6 1-384); assay: flow cytometry, HEK293 cells expressing the target, 13 nM antibody
T4 construct: Expressed on engineered HEK293 or CHO cells; also called hPROKR2; prokineticin receptor 2
Experimental: (§2) Anti-PROKR antibodies generated in accordance with Example 1 were tested for the ability to bind to human, mouse, and monkey PROKR1 and PROKR2. For these experiments, HEK293 cells were engineered to express: human PROKR1; human PROKR2; mouse PROKR1; mouse PROKR2; cynomolgus monkey PROKR1; or cynomolgus monkey PROKR2. Binding of anti-human PROKR antibodies to the PROKR-expressing cell lines was measured by flow cytometry.
(§3) Adherent cells were collected using 1 mM EDTA in PBS, then washed, and re-suspended in cold PBS containing 5% FBS. For the binding experiments, each anti-PROKR antibody was added to 250,000 cells in 500 μl of PBS with 5% FBS (final antibody concentration of 13 nM). After incubation for 20 minutes at room temperature, the cells were washed with PBS containing 5% FBS. A secondary antibody, recognizing either human (Jackson Immuno Research, #115-135-205) or mouse Fc (BD Pharmigen, #550826) and conjugated to allophycyanin, was then added to the cell mixture at a final concentration of 13.3 nM. After incubating for 20 minutes on ice, the cells were washed and resuspended in PBS containing 5% FBS and then sorted and analyzed on a FACSCalibur (BD Biosciences) flow cytometer to determine relative binding by the candidate antibodies. The cell samples containing secondary antibody alone were used as negative control for FACS gating. Histograms of cells stained with anti-human PROKR antibodies were compared with cells stained with secondary alone. […] ND=not determined.

[9] = target: T5, mouse PROKR2 (mouse (Mus musculus), UniProt Q8K458 1-381); assay: as above
T5 construct: whole, on cells; Expressed on engineered HEK293 or CHO cells; also called mPROKR2; CHO/mPROKR2
Experimental: as §2, §3

T1 sequence (Q8TCW9 whole entry): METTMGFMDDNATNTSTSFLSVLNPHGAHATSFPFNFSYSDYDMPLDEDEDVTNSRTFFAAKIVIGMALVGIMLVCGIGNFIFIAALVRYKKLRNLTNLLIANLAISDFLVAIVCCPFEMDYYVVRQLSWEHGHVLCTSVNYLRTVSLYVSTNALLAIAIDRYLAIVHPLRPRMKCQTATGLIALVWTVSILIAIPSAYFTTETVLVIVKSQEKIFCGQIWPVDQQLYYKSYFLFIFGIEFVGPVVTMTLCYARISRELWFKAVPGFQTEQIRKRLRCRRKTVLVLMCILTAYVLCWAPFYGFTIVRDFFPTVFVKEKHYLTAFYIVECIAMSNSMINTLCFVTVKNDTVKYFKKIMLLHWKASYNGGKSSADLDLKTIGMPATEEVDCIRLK
Chain of mouse PROKR1 (Q9JKL1 whole entry): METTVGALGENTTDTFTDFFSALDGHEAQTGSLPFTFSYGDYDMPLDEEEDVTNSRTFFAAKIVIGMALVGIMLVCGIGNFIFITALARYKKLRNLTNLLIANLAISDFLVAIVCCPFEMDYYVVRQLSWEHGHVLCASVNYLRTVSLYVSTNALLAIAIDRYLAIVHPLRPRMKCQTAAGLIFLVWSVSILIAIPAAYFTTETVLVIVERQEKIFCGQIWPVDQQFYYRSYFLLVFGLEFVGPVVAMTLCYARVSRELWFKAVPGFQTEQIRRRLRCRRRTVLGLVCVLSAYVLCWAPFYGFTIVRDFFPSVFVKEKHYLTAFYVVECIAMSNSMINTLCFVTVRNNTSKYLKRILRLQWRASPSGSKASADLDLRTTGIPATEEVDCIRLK
Chain of rat PROKR1 (Q8R416 whole entry): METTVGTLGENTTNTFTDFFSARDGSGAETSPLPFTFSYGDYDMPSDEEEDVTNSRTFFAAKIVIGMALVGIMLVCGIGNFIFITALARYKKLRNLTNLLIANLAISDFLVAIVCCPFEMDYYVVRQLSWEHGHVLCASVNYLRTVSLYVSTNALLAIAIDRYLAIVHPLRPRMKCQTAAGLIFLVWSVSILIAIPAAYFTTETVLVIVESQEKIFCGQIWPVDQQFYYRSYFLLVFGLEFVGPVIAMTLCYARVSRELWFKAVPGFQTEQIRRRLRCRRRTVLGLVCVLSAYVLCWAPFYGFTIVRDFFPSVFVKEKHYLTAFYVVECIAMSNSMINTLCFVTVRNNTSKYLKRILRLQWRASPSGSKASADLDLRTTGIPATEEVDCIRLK
Chain of cynomolgus monkey PROKR1 (G7PMD0 entry or part of it): as the sequence (Q8TCW9 whole entry) above, with V22A, T31A, S40G, I82V, V135I, K210R, V246F, D348N, V350A counted along it
T4 sequence (Q8NFJ6 whole entry): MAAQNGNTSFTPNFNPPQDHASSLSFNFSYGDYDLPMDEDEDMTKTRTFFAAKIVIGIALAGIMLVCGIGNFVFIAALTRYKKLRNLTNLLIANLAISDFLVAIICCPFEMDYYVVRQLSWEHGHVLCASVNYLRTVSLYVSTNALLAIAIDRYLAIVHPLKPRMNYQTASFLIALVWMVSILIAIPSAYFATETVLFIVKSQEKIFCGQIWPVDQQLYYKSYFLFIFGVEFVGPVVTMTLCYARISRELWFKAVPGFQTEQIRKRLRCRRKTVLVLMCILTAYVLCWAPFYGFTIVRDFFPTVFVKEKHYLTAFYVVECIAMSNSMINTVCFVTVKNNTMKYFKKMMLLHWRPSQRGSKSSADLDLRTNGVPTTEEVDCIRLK
T2 sequence (chain, as listed by the source limits assumed): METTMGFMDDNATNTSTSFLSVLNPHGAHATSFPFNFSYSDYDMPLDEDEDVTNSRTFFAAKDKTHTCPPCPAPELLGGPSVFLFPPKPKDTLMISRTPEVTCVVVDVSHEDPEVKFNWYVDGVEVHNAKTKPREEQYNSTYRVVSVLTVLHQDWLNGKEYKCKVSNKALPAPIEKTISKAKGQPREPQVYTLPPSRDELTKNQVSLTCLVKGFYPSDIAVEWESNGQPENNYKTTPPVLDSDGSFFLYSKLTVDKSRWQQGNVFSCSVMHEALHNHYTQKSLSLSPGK
T5 sequence (Q8K458 whole entry): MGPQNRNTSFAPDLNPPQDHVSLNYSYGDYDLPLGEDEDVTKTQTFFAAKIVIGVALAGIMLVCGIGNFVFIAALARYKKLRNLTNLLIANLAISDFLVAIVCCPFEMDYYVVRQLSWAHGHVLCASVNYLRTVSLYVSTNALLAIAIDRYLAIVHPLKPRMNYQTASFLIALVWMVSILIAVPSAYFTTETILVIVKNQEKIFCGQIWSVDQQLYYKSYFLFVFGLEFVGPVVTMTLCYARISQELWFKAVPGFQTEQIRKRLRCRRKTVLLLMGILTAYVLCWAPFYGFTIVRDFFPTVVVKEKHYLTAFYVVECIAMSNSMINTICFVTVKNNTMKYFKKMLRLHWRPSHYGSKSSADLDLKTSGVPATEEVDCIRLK

Binder	Block (%), calcium flux, hPROKR1 + PK1 (1 nM hPK1) [1] [%]	Block (%), calcium flux, hPROKR1 + PK2 (1 nM hPK2) [1] [%]	IC50 (nM), inhibition of calcium flux, hPROKR1 + PK1 (1 nM hPK1) [1] [nM]	IC50 (nM), inhibition of calcium flux, hPROKR1 + PK2 (1 nM hPK2) [1] [nM]	Block (%), calcium flux, MfPROKR1 + PK1 (5 nM hPK1) [2] [%]	Block (%), calcium flux, MfPROKR1 + PK2 (0.5 nM hPK2) [2] [%]	IC50 (nM), inhibition of calcium flux, MfPROKR1 + PK1 (5 nM hPK1) [2] [nM]	IC50 (nM), inhibition of calcium flux, MfPROKR1 + PK2 (0.5 nM hPK2) [2] [nM]	Block (%), calcium flux, mPROKR1 + PK1 (1 nM hPK1) [3] [%]	Block (%), calcium flux, rPROKR1 + PK1 (1 nM hPK1) [4] [%]	IC50 (nM), blocking of hPK2 induced calcium flux, CHO/hPROKR1 non-induced (4 nM hPK2) [5] [nM]	Kd [6] [nM]	koff [6] [s⁻¹]	kon [6] [M⁻¹ s⁻¹]	t½ [6] [min]	Kd [7] [nM]	koff [7] [s⁻¹]	kon [7] [M⁻¹ s⁻¹]	t½ [7] [min]	binding result [8]	further results
H4H6663P (antibody, human IgG4, V domains shown) VH: EVQLVESGGGLVKPGGSLRLSCAASGFTFSNAWMSWVRQVPGKGLEWVGRIKSKTDGGTTDYAAPVKGRFTISRDDPKNTLYLQMYSLKTEDTAVYYCTTRSMQYWGQGTLVTVSS VL: DIVMTQTPLSSPVTLGQPASISCRSSQSLVHSDGYTYLNWLQQRPGQPPRLLIYKISNRFSGVPDRFSGSGAGTDFTLKISRVEAEDVGIYYCMQATQFPTFGQGTKVEIK	–	–	–	–	–	–	–	–	–	–	–	10.6	0.0062	583000	2	129	0.0134	104000	1	binds	Block (%), calcium flux, hPROKR1 + PK1 (20 nM hPK1) [1]: 15.5%; IC50 (nM), inhibition of calcium flux, hPROKR1 + PK1 (20 nM hPK1) [1]: > 1000 nM
H4H6698P (antibody, human IgG4, V domains shown) VH: EVQLVESGGGLVKPGGSLRLSCAASGFTFSNVWMTWVRQAPGKGLEWVGRIKTKTDGGTTDYAAPVKGRFTISRDDSKNSLYLQMSSLKTEDTAVYYCTTGHTSYWGQGTLVTVSS VL: not shown	101	40	8.5	> 300	99.3	85.7	32.9	63.9	0	0	27.4	1.12	0.000287	255000	40	16.1	0.00857	533000	1	binds	IC50 (nM), blocking of hPK1 induced calcium flux, CHO/hPROKR1 non-induced (40 nM hPK1) [5]: 3.1 nM; binding result [9]: binds

The next binders have a lower Kd [6] than those just listed; values first:

Block (%), calcium flux, hPROKR1 + PK1 (1 nM hPK1) [1] [%]	Block (%), calcium flux, hPROKR1 + PK2 (1 nM hPK2) [1] [%]	IC50 (nM), inhibition of calcium flux, hPROKR1 + PK1 (1 nM hPK1) [1] [nM]	IC50 (nM), inhibition of calcium flux, hPROKR1 + PK2 (1 nM hPK2) [1] [nM]	Block (%), calcium flux, MfPROKR1 + PK1 (5 nM hPK1) [2] [%]	Block (%), calcium flux, MfPROKR1 + PK2 (0.5 nM hPK2) [2] [%]	IC50 (nM), inhibition of calcium flux, MfPROKR1 + PK1 (5 nM hPK1) [2] [nM]	IC50 (nM), inhibition of calcium flux, MfPROKR1 + PK2 (0.5 nM hPK2) [2] [nM]	Block (%), calcium flux, mPROKR1 + PK1 (1 nM hPK1) [3] [%]	Block (%), calcium flux, rPROKR1 + PK1 (1 nM hPK1) [4] [%]	IC50 (nM), blocking of hPK2 induced calcium flux, CHO/hPROKR1 non-induced (4 nM hPK2) [5] [nM]	Kd [6] [nM]	koff [6] [s⁻¹]	kon [6] [M⁻¹ s⁻¹]	t½ [6] [min]	Kd [7] [nM]	koff [7] [s⁻¹]	kon [7] [M⁻¹ s⁻¹]	t½ [7] [min]	binding result [8]	Binder	further results
98.5	56.6	6.6	> 300	101	50.5	6.4	> 300	20.9	0	21.9	1.07	0.000412	385000	28	2.41	0.00215	891000	5	binds	H4H6701P (antibody, human IgG4, V domains shown) VH: EVQLVESGGGLVKPGGSLRLSCAASGFTFSNAWMTWVRQAPGKGLEWVGRTKTKTEGGTTDYAAPVKGRFTISRDDSKNTLYLQMNSLKTEDTAVYYCTTGHIFYWGQGTLVTVSS VL: not shown	IC50 (nM), inhibition of calcium flux, mPROKR1 + PK1 (1 nM hPK1) [3]: > 300 nM; IC50 (nM), blocking of hPK1 induced calcium flux, CHO/hPROKR1 non-induced (40 nM hPK1) [5]: 4.1 nM; binding result [9]: binds
101	77.5	6.3	55.1	101	93.7	6.7	51.8	0	0	20	0.461	0.000136	294000	85	11	0.00539	489000	2	–	H4H6385N (antibody, human IgG4, V domains shown, Form used in SPR and calcium assays; also called H4HM6385N) VH: EVQVVESGGGLVKPGGSLRLSCAASGFTFSNVWMTWVRQAPGKGLEWVGRIKSKIEGGTTDYAASVKGRFTISRDDSKNTQSLQMNSLKSEDTAVYYCSTGHLAYWGQGTLVIVSS VL: DIVMTQTPLSSPVSLGQPASISCRSSQSLVHSDGSTYLSWLQQRPGQPPRLLIYKISNRFSGVPDRFSGSGAGTDFTLKISRVEAEDVGIYYCMQATQFPTFGQGTKVEIK	IC50 (nM), blocking of hPK1 induced calcium flux, CHO/hPROKR1 non-induced (40 or 80 nM hPK1, average) [5]: 14.2 nM
